19 variants from the RNAGym collection of RNA variant scans (doi:10.1073/pnas.2313332121) can be followed below.

Variants at the floor of the assay were thinned out.

To fix the notation:
B1: TPR 5TU (parent)
chain: GGAUCUUCUCGAUCUAACAAAAAAGACAAAUCUGCCACAAAGCUUGAGAGCAUCUUCGGAUGCAGAGGCGGCAGCCUUCGGUGGCGCGAUAGCGCCAACGUUCUCAACUAUGACACGCAAAACGCGUGCUCCGUUGAAUGGAGUUUAUCAUG

The variants in the data set derive from B1. The experiment in a line: polymerase ribozyme fitness, log enrichment relative to wild type (log ratio); higher = more active; in vitro selection for triplet polymerase activity. In short, it runs like this:
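Fitness is a logarithmic measure of how a genotype enriched relative to the wild type, with replicate averages weighted by inverse variance. The logarithm uses base 2, and enrichment came from Illumina sequencing of input and output libraries. Those libraries were PCR-built, transcribed mutants of each subunit of a heterodimeric triplet polymerase ribozyme, passed through one triplicate in vitro selection round that included frozen incubation at −7 °C, gel excision of extended constructs and streptavidin-bead capture. Genotypes were kept only if they had ≥10 input reads and ≥1 read per output.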
Take GGAUCUUCUCGAUCUGACAAAAAAGACAAAUCUGCCACAAAGCUUGAGAGCAUCUUCGGAUGCAGAGGCGGCAGCCUUCGGUGGCGCGUUAGCGCCAACGUUCUCAACUAUGACGCGCGAAACGCGUGCUCCGGUGAAUGGAGAUUAUCAUG [A16G A89U A115G A119G U134G U144A]: the “polymerase ribozyme fitness (log ratio)” value is at most -4.2. As to GGAUCUUCUCGAUCUGACAAAAAAGACAAAUCUGCCACAAAGCUUGAGAGCAUCUUCGGAUGCAGAGGCGGCAGCCUUCGGUGGCGCGAUAGCGCCAAUGUUCUCAACUAUGACACGCAAAACGCGUGCUCCGUUGAAUGGAGUUUAUCAUG [A16G C99U], the “polymerase ribozyme fitness (log ratio)” value is -1.33. The figure for GGAUCUUCUCGAUCUGCCAAAAAAGACAAAUCUGCCACAAUGCUUGAGAGCAUCAUCGGAUGCAGAGGCGGCAGCUUUCGGUGGAGCGAUAGCGCCAACGUUCUCAACUAUGACACGCAAAACGCGUGCUCCGUUGAAUGGAGUUUAUCAUG [A16G A17C A41U U55A C76U C85A] is at most -4.2; for GGAUCUUCUCGAUCUGACAAAAAAGACAAAUCUGCCUCAAAGCUUGAGAGCAUCUUCGGAUGCAGAGGCGGCAGCCUUCGGUGGCGCGAUAUCGCCAACGUUCUCAACUAUGACACGCAAAACGCGUGCUCCGUUGAAUGGAGUUUAUCAUG [A16G A37U G92U] it is -2.9. With GGAUCUUCUCGAUCUGACAAAAAAGACAAAUCUGCCACAAAGCUUGGGACCAUCUUCGAAUGCAGAGGCGGCAGCCUUCGGUUGCGCGAUAGCGCCAACGUUCUCAACUAUGAAACGCAAAACGCGUGCUCCGUUGAAUGGAGUUUAUCAUG [A16G A47G G50C G59A G83U C114A], the “polymerase ribozyme fitness (log ratio)” value is at most -4.2. Consider GGAUCUUCUCGAUCUGACAAAAAAGACAAAUCUGCCACAAAGCUUGAGAGCAUCUUCGGAUGCAGAGGCGGCGGCCUUCGGUGGCGCGAUAGCGCCAACGUUCUCAACUAUGACACGCAAAACGCGUGCUCCGUUGAAUGGAGUUUAUCAUG [A16G A73G], for which the “polymerase ribozyme fitness (log ratio)” value was -0.494.

With GGAUCUUCUCGAUCUGACAACAAAGACAAAUCUGCCACAAAGCUUGAGAGCAUCUUCGGAUGCAGAGGCGGCAGCCUUCAGUGGCGCGAUAGCGCCAACGUUAGCAACUAUGACACGCAAAACGCGUGCUCCGUUGAAUGGAGUUUAUCAUG [A16G A21C G80A C103A U104G], the “polymerase ribozyme fitness (log ratio)” value was at most -4.2. Then GGAUCUUCUCGAUCUCACAAAAAAGACAAAACUGCCACAAAGCUUGAGAGCAUCUUCGGAUGCAGAGGCGGCAGCCUUCGGUGGCGCGAUAGCGCCAACGUUCUCAACUAUGACACGCAAAACGCGUGCUCCGUUGAAUGGAGUUUAUCAUG [A16C U31A], with -0.733. In the case of GGAUCUUCUCGAUCUGUCAAAAAAGUCAAAUCUGCCACAAUGCUUGAGAGCAUCUUCGGAUGCAGAGGCGGCAGCCUUCGGUGGCGCGAUAGCGCAAACGUACUCAACUAUGACACGCAAAACGCGUGCUCCGUUGAAUGGACUUUAUCAUG [A16G A17U A26U A41U C96A U102A G143C], the “polymerase ribozyme fitness (log ratio)” value is at most -4.2. Consider GGAUCUUCUCGAUCUGACAAAAAAGACAAUUCUGCCACAAAGCUUGAGAGCAUCUUCGGAUGCAGAGGCGGCAGCCUUCGCUGGCGCGAUAGCGUCAACGUUCUCAACUGUGACACGCAAAACGCGUGCUCCGUUGAAUGGAGUUUAUCAUG [A16G A30U G81C C95U A110G], for which the “polymerase ribozyme fitness (log ratio)” value was at most -4.2. The figure for GGAUCUUCUCGAUCUGACAAAAAAGACAAAUCUGCCACGAAGCUUGAGAGCAUCUUCGGAUGCAGAGACGGCAGCCUUCGGUGGCGCGAUAGCGACAACGUUGUCAAUUAGGACGCGCAAAAUGCGUGCUCCGUUGAAUGGAGUUUAUCAUG [A16G A39G G68A C95A C103G C108U U111G A115G C123U] is at most -4.2.

As for GGAUCUUCUCGAUCUGACACACAAGACAAAUGUGCCACAAAGCUUGAGAGCAUCUUCGGAUGCAGGGGCGGCAGCCUUCGGUGGCGCGAUAGCGCCAACGUUCUCAACUAUGACACGGAAAACGCAUGCUCAGUUGAAUGGAGUUUAUCAUG [A16G A20C A22C C32G A66G C118G G126A C132A], the “polymerase ribozyme fitness (log ratio)” value was at most -4.2. GGAUCUUCUCGAUCUGACAAAAAAGACAAAUCUGCCACAAAGCUUGAGAGCAUAUUCGGAUGCAGAGGCGGCAGCCUUCGGUGGCGCGAUAGCGCCAACGUUCUCAACUAUGACAAGCAAAACGCGUGCUCCCUUGAAUGGAGUUUAUCAUG [A16G C54A C116A G133C]: the “polymerase ribozyme fitness (log ratio)” value was -2.21. The figure for GGAUCUUCUCGAUCUGACAAAAAAGACAAAUCUGCCACAAAGCUUGAGAGCAUCUUCGGAUGCAGAGGCGGCAGCCUUCGGUGGCGCGAUAGCGCCAACGUUCUCAAUUAUGACACGCAAAACGCAUGCUCCGUUGAAUGGAGUUUAUCAUG [A16G C108U G126A] is at most -4.2; for GGAUCUUCUCGAUCUCACAAAAAAGACAAAUCUGCCACAAAGCUUGAGAGCAUCUUCGGAUGCAGAGGCGGCAGCCUUCGGUGGCGCGAUAUCGCCAACGUUCUUAUCUCUGACACGCAAAACGCGUGCUCCGUUGACUGGAGUUUAUCAUG [A16C G92U C105U A107U A110C A138C] it is at most -4.2. The figure for GGAUCUUCUCGAUCUGACAAAAAAGACAAAUCUGCCACAAAGCUUGAGAGCCUCUUCGGAUGCAGAGGCGGCAGCCUUCGGUGGCGAGAUAGCGCCAACGUACUCAACUAUGACACGGAAAACGCGUGCUCUGUUGAAUGGAGUUUAUCAUG [A16G A52C C87A U102A C118G C132U] is at most -4.2; for GGAUCUUCUCGAUCUGACAAAAAAGACAAAUCUGCCACAUAGCUUGAGAGCAUCUUCGCAUGCAGAGGCGGCAGCCUUCGGUGGCGCGAUAGCGCCAACGUUCACAACUAUGACACGCAAAACGCGUGCUCCGUUGAAUGGAGUUUAUCAUG [A16G A40U G59C U104A] it is -1.85; for GGAUCUUCUCGAUCUGACAAAAAAAACAAAUCUGCCACAAAGCUCGAGAGCAACUUCGGAUGCAGAGGCGGCAGCCUUCGGUGGCGCGAUCGCGCCAACGUUGUCAAUUAUGACACGCAAAACGUGUGCUCCGUUGAAUGGAGUUUAUCAUG [A16G G25A U45C U53A A91C C103G C108U C125U] it is at most -4.2. For the variant GGAUCUUCUCGAUCUGACAAAAAAGACAAAUCUGCCACAAAGCUUGAGGGCAUCUUCGGAUGCAGAGGCGGCCGCCUUCGGUGGCGCGAUGGCGCCAACGUUCUCAACUAUGACACGCAAAACGCGUGCUCCGUUGAAUGGAGCUUAUCAUG [A16G A49G A73C A91G U144C], the “polymerase ribozyme fitness (log ratio)” value is at most -4.2.
